Laboratory results taken from US20110300138A1 (published 2011).

How the values were obtained:
[1] = target: human TSHR on transfected CHO cells (human, UniProt P16473 22-764); assay: cell-based or functional assay
[2] = target: T1, TSHR260 (human, UniProt P16473 22-260); assay: Scatchard analysis, TSHR260 coated tubes (mean±SD, n=3)
T1 construct: Expressed in insect cells; coated on tubes or wells by way of a mouse TSHR MAb (14C4 F(ab')2 in the stability ELISA); also called TSHR fragment of amino acids 22-260

[3] = target: T2, full length human TSHR, detergent-solubilised, coated on tubes or ELISA plate wells (human, UniProt P16473 22-764); assay: inhibition of 125I-TSH binding to TSHR coated tubes, dilutions in HBD sera
T2 construct: Full length receptor expressed in CHO cells, solubilised with detergent and held on the plastic by a mouse MAb to the C-terminus; The leader 1-21 is stated for the TSHR260 construct of the same receptor; also called TSH receptor; TSHR (full length)

[4] = target: T2, full length human TSHR, …; assay: inhibition of 125I-TSH binding to TSHR coated tubes, dilutions in assay buffer
Method: Binding inhibition assays were carried out using TSHR coated tubes as described in WO2004/050708A2. […] After aspiration, the tubes were washed and 100 μL of ¹²⁵I-labelled protein (5×10⁴ cpm) added and incubated for 1 hour at room temperature with shaking. The tubes were then aspirated, washed and counted in a gamma counter. Inhibition of labelled protein binding was calculated as 100×[1−(cpm bound in the presence of test material/cpm bound in the presence of control material)].

[5] = target: T2, full length human TSHR, …; assay: Scatchard analysis, 125I-labelled antibody on full length TSHR coated tubes (mean±SD, n=3)

B1: K1-18 IgG (antibody, V domains shown)
VH: EVQLVQSGAEVKKPGESLKISCKGSGYSFTNYWIGWVRQMPGKGLEWMGIIYPYDSDTRYSPSFEGQVTISADKSIRTAYLHWSSLKASDTAMYYCVRPRDGSYPYDAFDIWGQGTMVTVSS
VL: EIVLTQSPGTLSLSPGERATLSCRASQSVSNNYLAWYQQKPGQAPRLLIYGASSRATGIPDRFSGSGSGTDFTLTISRLEPEDFAVYYCQHCGSSLRAFGQGTKVEIKR
notes: Human IgG1 kappa purified from hetero-hybridoma supernatant; also called human MAb K1-18
Q: Which “potency of TSHR cyclic AMP stimulation, M22 against K1-18” value [1] does the source give for B1 here?
A: ~1.5 fold

Q: And the Ka [2]?
A: 5.9e+09 M⁻¹

Q: What about the “fold activity in inhibition of TSH binding against K1 donor serum IgG” value [3] of the same binder?
A: 6600 times

Q: What about the “fold activity in inhibition of TSH binding against K1 donor serum IgG” value [4] of the same binder?
A: 4700 times

Q: What about the Ka [5] of the same binder?
A: 6.7e+09 M⁻¹
